# T1: EBV LMP2 (latent membrane protein 2) peptide on HLA-A*01:01 (human)
# T1 peptide: ESEERPPTPY
# Target: T1, EBV LMP2 (latent membrane protein 2) …
# Assay: multimer staining
row,Binder,binding result
1,EBV-LMP2^ESE-specific TCR C^2 from donor C (TCR) alpha TRAV30 TRAJ45 CDR3: CGTEDGRGGADGLTF beta TRBV6-3 TRBJ2-1 CDR3: CASSYGIYEQFF,recognises
2,TCR-B1 (TCR) alpha TRAV12 TRAJ3 CDR3: CVVTGYSSASKIIF beta TRBV6-3 TRBJ2-1 CDR3: CASSSEGQFNEQFF,recognises
3,EBV-LMP2^ESE-specific TCR from donor A (TCR) alpha TRAV12 TRAJ3 CDR3: CVVTGYSSASKIIF beta TRBV6-3 TRBJ2-1 CDR3: CASSWEGQYNEQFF,recognises
4,EBV-LMP2^ESE-specific TCR from donor E (TCR) alpha TRAV26 TRAJ23 CDR3: CIVSGGKLIF beta TRBV12-3/4 TRBJ2-5 CDR3: CASSSSWTSGSGETQYF,recognises
5,TCR-C1 (TCR) alpha TRAV30 TRAJ45 CDR3: CGTGSGGGADGLTF beta TRBV6-3 TRBJ2-1 CDR3: CASSPEGVFNEQFF,recognises

# Reference: PMC9470112 (2020)
